Publication PMC8459022 (Frontiers in Plant Science, 2021)

B1: plant-produced Pembrolizumab (antibody, V domains shown)
VH: QVQLVQSGVEVKKPGASVKVSCKASGYTFTNYYMYWVRQAPGQGLEWMGGINPSNGGTNFNEKFKNRVTLTTDSSTTTAYMELKSLQFDDTAVYYCARRDYRFDMGFDYWGQGTTVTVSS
VL: EIVLTQSPATLSLSPGERATLSCRASKGVSTSGYSYLHWYQQKPGQAPRLLIYLASYLESGVPARFSGSGSGTDFTLTISSLEPEDFAVYYCQHSRDLPLTFGGGTKVEIK
notes: Pembrolizumab heavy chain; DrugBank DB09037; Pembrolizumab light chain (kappa); IgG4 kappa antibody; assembled as full IgG (150 kDa) by non-reducing SDS-PAGE and SEC; also called Pem WT; anti-human PD-1 monoclonal antibody produced in Nicotiana benthamiana; copies: 2 + 2
B2: Keytruda (mammalian cell-produced commercial Pembrolizumab) (antibody, V domains shown)
VH: B1 VH
VL: B1 VL
notes: Pembrolizumab heavy chain; as the heavy chain of m1 without the C-terminal SEKDEL; DrugBank DB09037; Pembrolizumab light chain; as the light chain of m1; Commercial drug product used as the positive control and comparator; source: bought: commercial Keytruda, mammalian cell-produced
B3: commercial Pembrolizumab (Keytruda) (antibody, V domains shown)
VH: B1 VH
VL: B1 VL
notes: Pembrolizumab heavy chain; as the heavy chain of Wm1 without the C-terminal SEKDEL; Pembrolizumab light chain; as the light chain of Wm1; The commercial drug; also called mammalian cell-produced Pembrolizumab; source: bought: commercial Pembrolizumab (Keytruda), mammalian cell-produced

Experiments:
[1] = target: T1, recombinant human PD-1 His tag protein (Homo sapiens, UniProt Q15116); assay: SPR; Biacore T200, antibody (3 ug/ml) captured on protein G sensor chip in HBS-EP; single-cycle kinetics with human PD-1 His tag at 10, 20, 40, 80 and 160 nM, 30 ul/min, 60 s association, 120 s dissociation; Langmuir 1:1 model; details: both partners purified
T1 construct: human programmed cell death protein 1 (PD-1), recombinant, His tag; as recalled the catalogue product is the extracellular domain of PD-1 with a C-terminal His tag; also called programmed cell death protein 1; source: bought: R&D Systems (8986-PD)
T1 sequence (Q15116 25-170): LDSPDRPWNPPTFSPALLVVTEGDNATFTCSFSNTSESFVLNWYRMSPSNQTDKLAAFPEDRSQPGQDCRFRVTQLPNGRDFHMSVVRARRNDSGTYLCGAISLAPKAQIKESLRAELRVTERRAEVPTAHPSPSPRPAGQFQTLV

[2] = target: T1, recombinant human PD-1 His tag protein; assay: cell-based or functional assay
[3] = target: T2, recombinant human PD-1 His tag protein (Homo sapiens, UniProt Q15116); assay: SPR; Biacore T200; antibodies (3 ug/ml in HBS-EP) captured on a protein G sensor chip; human PD-1 His tag injected at 10, 20, 40, 80 and 160 nM, single-cycle kinetics, 30 ul/min, 60 s association, 120 s dissociation; Langmuir 1:1 model; details: both partners purified
T2 construct: programmed cell death protein 1 (PD-1), human; recombinant, R&D Systems 8986-PD; also called programmed cell death protein 1; source: bought: R&D Systems
T2 sequence (Q15116 25-170): as above

Kd [1] [nM]	PD-1/PD-L1 blockade bioassay (luciferase reporter; Jurkat/PD-1 effector cells with CHO-K1/PD-L1 cells, 6 h); EC50 of blocking PD-1 with PD-L1 [2] [µg/mL]	koff [3] [s⁻¹]	kon [3] [M⁻¹ s⁻¹]	Binder
8.51	0.147			B1
8.26	0.147			B2
		0.00339	410000	B3
